Experimental data reported in patent publication US20170306005A1 (NASCIENT, published 2017).

Experiments:
[1] = target: T1, human tenascin-C rCd4-His-FBG (rat; human, UniProt P05540 207-392, limits assumed); test: SPR, captured purified IgG4, 37 C
T1 construct: domain: domains 3 and 4; C-terminal FBG fusion; biotinylated in the ELISA and HTRF screens; also called Hu TNC; human TNC rCd4-His-FBG; not shown: 6His tag
T1 sequence (chain (part 1 of 2)): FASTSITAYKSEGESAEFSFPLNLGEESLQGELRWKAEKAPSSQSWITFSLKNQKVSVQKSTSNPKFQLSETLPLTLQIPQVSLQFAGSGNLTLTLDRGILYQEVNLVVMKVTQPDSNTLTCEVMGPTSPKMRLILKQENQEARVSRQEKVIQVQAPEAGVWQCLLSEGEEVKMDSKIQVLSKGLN
T1 sequence (chain (part 2 of 2)): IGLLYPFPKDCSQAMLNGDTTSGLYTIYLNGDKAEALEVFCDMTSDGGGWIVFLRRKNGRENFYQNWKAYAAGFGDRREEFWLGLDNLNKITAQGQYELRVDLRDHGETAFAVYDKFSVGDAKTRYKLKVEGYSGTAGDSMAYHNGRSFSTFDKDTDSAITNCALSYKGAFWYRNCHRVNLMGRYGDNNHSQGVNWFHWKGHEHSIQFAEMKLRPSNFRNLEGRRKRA

[2] = target: T2, rat tenascin-C rCd4-His-FBG (rat, UniProt P05540 207-392, limits assumed); test: SPR, captured purified IgG4, 37 C
T2 construct: domain: domains 3 and 4; C-terminal FBG fusion; also called Rat TNC; rat TNC rCD4-His-FBG; not shown: 6His tag
T2 sequence (chain (part 1 of 2)): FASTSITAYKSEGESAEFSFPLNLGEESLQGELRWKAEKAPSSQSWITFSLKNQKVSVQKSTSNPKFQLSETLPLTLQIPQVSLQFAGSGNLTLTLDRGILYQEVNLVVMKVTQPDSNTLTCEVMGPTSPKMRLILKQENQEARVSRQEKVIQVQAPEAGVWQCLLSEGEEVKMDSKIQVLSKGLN
T2 sequence (chain (part 2 of 2)): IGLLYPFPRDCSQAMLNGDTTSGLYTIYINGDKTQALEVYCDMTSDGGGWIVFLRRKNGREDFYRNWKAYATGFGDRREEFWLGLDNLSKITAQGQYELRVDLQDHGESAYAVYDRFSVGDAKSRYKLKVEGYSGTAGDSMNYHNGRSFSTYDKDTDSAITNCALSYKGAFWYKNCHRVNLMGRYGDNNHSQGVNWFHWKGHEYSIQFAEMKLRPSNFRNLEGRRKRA

[3] = target: T3, dog tenascin-C rCD4-His-FBG (rat; dog, UniProt P05540 207-392, limits assumed); test: SPR, captured purified IgG4, 37 C
T3 construct: domain: domains 3 and 4; C-terminal FBG fusion; also called Dog TNC; not shown: 6His tag
T3 sequence (chain (part 1 of 2)): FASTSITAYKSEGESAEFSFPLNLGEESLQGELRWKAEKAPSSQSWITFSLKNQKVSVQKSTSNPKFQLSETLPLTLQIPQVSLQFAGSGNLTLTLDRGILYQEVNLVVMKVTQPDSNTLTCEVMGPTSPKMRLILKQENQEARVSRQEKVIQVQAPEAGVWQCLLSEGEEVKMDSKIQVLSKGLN
T3 sequence (chain (part 2 of 2)): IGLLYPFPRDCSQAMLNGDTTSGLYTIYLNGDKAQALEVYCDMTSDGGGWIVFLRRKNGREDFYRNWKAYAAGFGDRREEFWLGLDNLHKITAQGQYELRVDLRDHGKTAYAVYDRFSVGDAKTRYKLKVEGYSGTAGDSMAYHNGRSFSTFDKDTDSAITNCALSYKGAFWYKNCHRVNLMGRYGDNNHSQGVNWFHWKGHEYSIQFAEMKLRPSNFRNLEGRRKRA

[4] = target: T1, human tenascin-C rCd4-His-FBG; test: SPR off-rate screen, captured IgG4 supernatant, 25 C
Outline: (§1)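 SPR at 25 °C: IgG4 (S241P) from culture supernatant, diluted 1:2 in 2×PBS-T, captured on anti-human Fc surface; antigen injected at a fixed 15 nM (human and mouse TNC rCd4-His-FBG) or 100 nM (human TNR rCd4-His-FBG), 30 μl/min. Association 1 min, dissociation 5 min; off-rates from reference-subtracted 1:1 fits.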

[5] = target: T4, mouse tenascin-C rCd4-His-FBG (rat; mouse, UniProt P05540 207-392, limits assumed); test: as above
T4 construct: domain: domains 3 and 4; C-terminal FBG fusion; biotinylated in the ELISA screen; also called Mu TNC; mouse TNC rCd4-His-FBG; not shown: 6His tag
T4 sequence (chain (part 1 of 2)): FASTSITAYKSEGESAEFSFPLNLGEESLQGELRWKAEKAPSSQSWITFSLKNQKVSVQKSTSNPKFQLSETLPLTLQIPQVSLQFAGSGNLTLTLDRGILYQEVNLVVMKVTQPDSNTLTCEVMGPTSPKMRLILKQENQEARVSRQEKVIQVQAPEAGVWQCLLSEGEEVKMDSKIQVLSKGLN
T4 sequence (chain (part 2 of 2)): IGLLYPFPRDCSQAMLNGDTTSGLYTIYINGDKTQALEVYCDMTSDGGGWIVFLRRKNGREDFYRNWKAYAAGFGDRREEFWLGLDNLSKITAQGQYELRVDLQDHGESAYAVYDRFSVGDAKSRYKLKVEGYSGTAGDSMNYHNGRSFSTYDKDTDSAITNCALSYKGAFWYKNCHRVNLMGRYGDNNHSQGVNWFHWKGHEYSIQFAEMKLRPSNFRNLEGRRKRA
Outline: as §1

Kd [1]: 0.072 nM
koff [1]: 0.00083 s⁻¹
kon [1]: 1.16e+07 M⁻¹ s⁻¹
Kd [2]: 1.22 nM
koff [2]: 0.00473 s⁻¹
kon [2]: 3.89e+06 M⁻¹ s⁻¹
Kd [3]: 1.8 nM
koff [3]: 0.0108 s⁻¹
kon [3]: 5.97e+06 M⁻¹ s⁻¹
koff [4]: < 1e-05 s⁻¹
koff [5]: 3.3e-06 s⁻¹
B1: 165_13_C3 human IgG4 (antibody, V domains shown)
VH: QVQLVESGGGLVQPGRSLRLSCAASGFTFDDYAMHWVRQAPGKGLEWVSGISGSGGSTYYADSVKGRFTISRDNAKNSLYLQMNSLRAEDTALYYCAKSYQSDEDAFDIWGQGTMVTVSS
VL: DIQMTQSPASLPTPVGDRVTITCRASQYIQGFLNWYQQKPGKAPKLLIYDASNLETGVPSRFSGSGSGTDFTLTISSLQPEDFATYYCQQSYSTPQTFGQGTKVDIKR
notes: also called IgG4 C3; C3 IgG4 MAb
